Key:
Test in all cases: p53 two-site sandwich ELISA, sample tested at 100 ng/ml
[1] = molecular target: bInsulin (bovine (by the printed prefix b; not spelled out)) (UniProt P01317)
[2] = molecular target: hrIL-2 (human (by the printed prefix hr; not spelled out)) (UniProt P60568)
[3] = molecular target: hrIGF-1 (human (by the printed prefix hr; not spelled out)) (UniProt P05019)
[4] = molecular target: hTransferin (human (by the printed prefix h; not spelled out)) (UniProt P02787)
[5] = molecular target: hPDGF (human (by the printed prefix h; not spelled out))
[6] = molecular target: hrIL-1α (human (by the printed prefix hr; not spelled out)) (UniProt P01583)
[7] = molecular target: hrIL-3 (human (by the printed prefix hr; not spelled out)) (UniProt P08700)
[8] = molecular target: hrGM-CSF (human (by the printed prefix hr; not spelled out)) (UniProt P04141)
[9] = molecular target: hrIL-6 (human (by the printed prefix hr; not spelled out)) (UniProt P05231)
[10] = molecular target: hG-CSF (human (by the printed prefix h; not spelled out)) (UniProt P09919)
[11] = molecular target: hrIL-4 (human (by the printed prefix hr; not spelled out)) (UniProt P05112)
[12] = molecular target: hrTNFα (human (by the printed prefix hr; not spelled out)) (UniProt P01375)
[13] = molecular target: hrIL-1β (human (by the printed prefix hr; not spelled out)) (UniProt P01584)

Measured: Assay Results (apparent mutant p53 read in the p53 ELISA)

monoclonal antibody from clone PAb240
< 50 pg/mL: [1] | [2] | [3] | [4] | [5] | [6] | [7] | [8] | [9] | [10] | [11] | [12] | [13]

Reference: patent US6083709
